# The supplement of paper PMC10567573
# B1: RHOBTB1 (parent)
# chain: TFGDHHKDRRFAYGRSDVVVLCFS
# B2: ANKRD17 (parent)
# chain: EVLRRLTSSVSCALDEAAAALTRM
# Variants of: B1
# Assay: protein stability index of a GFP-peptide fusion (GPS, HEK-293T) (PSI 1-6); higher = more stable
# Settings: c terminus: a fixed tail appended
# 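Further: lentivirally expressed fusions sorted by FACS into six bins by GFP to DsRed ratio, PSI derived from sequencing read proportions per bin multiplied by bin number.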
row,Variant,protein stability index
1,TFGDHHKDRRFAYGRSDVVVLCFP [S24P],1.48
2,TFGDHHKDRRFAYGRSDVVVLCFC [S24C],3.85
3,TFGDHHKDRRFAYGRSDVVVLCFE [S24E],2.05
4,TFGDHHKDRRFAYGRSDVVVLCFH [S24H],2.98
5,TFGDHHKDRRFAYGRSDVVVLCFT [S24T],2.16
6,TFGDHHKDRRFAYGRSDVVVLCFF [S24F],2.84
7,TFGDHHKDRRFAYGRSDVVVLCFY [S24Y],4.57
8,TFGDHHKDRRFAYGRSDVVVLCFN [S24N],1.65
9,TFGDHHKDRRFAYGRSDVVVLCFD [S24D],1.66
10,TFGDHHKDRRFAYGRSDVVVLCFG [S24G],2.54
11,TFGDHHKDRRFAYGRSDVVVLCFV [S24V],2.3
12,TFGDHHKDRRFAYGRSDVVSLCFS [V20S],1.95
13,TFGDHHKDRRFAYGRSDVVYLCFS [V20Y],1.75
14,TFGDHHKDRRFAYGRSDVVPLCFS [V20P],2.61
15,TFGDHHKDRRFAYGRSDVVLLCFS [V20L],2.42
16,TFGDHHKDRRFAYGRSDVVDLCFS [V20D],2.62
17,TFGDHHKDRRFAYGRSDVVRLCFS [V20R],1.97
18,TFGDHHKDRRFAYGRSDVVGLCFS [V20G],2.05
19,TFGDHHKDRRFAYGRSDVVQLCFS [V20Q],1.7
20,TFGDHHKDRRFAYGRSDVVFLCFS [V20F],2.54
21,TFGDHHKDRRFAYGRSDVVMLCFS [V20M],1.44
22,TFGDHHKDRRFAYGRSDVVKLCFS [V20K],1.73
23,TFGDHHKDRRFAYGRSDVVTLCFS [V20T],1.68
24,TFGDHHKDRRFAYGRSDVVCLCFS [V20C],1.51
25,TFGDHHKDRRFAYGRSDVVHLCFS [V20H],1.62
26,TFGDHHKDRRFAYGRSDVVALCFS [V20A],3.28

row,Variant,protein stability index
1,TFGDHHKDRRFAYGRSDVVNLCFS [V20N],2.56
2,TFGDHHKDRRFAYGRSDVVELCFS [V20E],2.7
3,TFGDHHKDRRFAYGRHDVVVLCFS [S16H],2.91
4,TFGDHHKDRRFAYGREDVVVLCFS [S16E],2.07
5,TFGDHHKDRRFAYGRMDVVVLCFS [S16M],2.96
6,TFGDHHKDRRFAYGRADVVVLCFS [S16A],4.21
7,TFGDHHKDRRFAYGRDDVVVLCFS [S16D],2.52
8,TFGDHHKDRRFAYGRNDVVVLCFS [S16N],2.38
9,TFGDHHKDRRFAYGRLDVVVLCFS [S16L],2.15
10,TFGDHHKDRRFAYGRKDVVVLCFS [S16K],2.43
11,TFGDHHKDRRFAYGRQDVVVLCFS [S16Q],2.83
12,TFGDHHKDRRFAYGRYDVVVLCFS [S16Y],1.23
13,TFGDHHKDRRFAYGRPDVVVLCFS [S16P],3.17
14,TFGDHHKDRRFAYGRWDVVVLCFS [S16W],2.29
15,TFGDHHKDRRFAYGRIDVVVLCFS [S16I],1.57
16,TFGDHHKDRRFAYGRSDVVVVCFS [L21V],2.86
17,TFGDHHKDRRFAYGRSDVVVGCFS [L21G],2.23
18,TFGDHHKDRRFAYGRSDVVVTCFS [L21T],2.14
19,TFGDHHKDRRFAYGRSDVVVNCFS [L21N],2.44
20,TFGDHHKDRRFAYGRSDVVVQCFS [L21Q],2.4
21,TFGDHHKDRRFAYGRSDVVVACFS [L21A],1.62
22,TFGDHHKDRRFAYGRSDVVVCCFS [L21C],1.85
23,TFGDHHKDRRFAYGRSDVVVKCFS [L21K],2.34
24,TFGDHHKDRRFAYGRSDVVVICFS [L21I],1.49
25,TFGDHHKDRRFAYGRSDVVVFCFS [L21F],2.07
26,TFGDHHKDRRFAYGRSDVVVHCFS [L21H],1.9

row,Variant,protein stability index
1,TFGDHHKDRRFAYGRSDVVVDCFS [L21D],2.68
2,TFGDHHKDRRFAYGRSDVVVECFS [L21E],2.79
3,TFGDHHKDRRFAYGRSDVVVMCFS [L21M],2.78
4,TFGDHHKDRRFAYGRSDVVVRCFS [L21R],1.96
5,TFGDHHKDRRFAYGRSDVVVWCFS [L21W],2.3
6,TFGDHHKDRRFAYGRSDVVVSCFS [L21S],2.15
7,TFGDHHKDRRFAYGRSDVVVPCFS [L21P],2.56
8,TFGDHHKDRRFAYGRSDVDVLCFS [V19D],2.93
9,TFGDHHKDRRFAYGRSDVYVLCFS [V19Y],2.45
10,TFGDHHKDRRFAYGRSDVKVLCFS [V19K],1.92
11,TFGDHHKDRRFAYGRSDVWVLCFS [V19W],1.37
12,TFGDHHKDRRFAYGRSDVAVLCFS [V19A],2.23
13,TFGDHHKDRRFAYGRSDVGVLCFS [V19G],1.61
14,TFGDHHKDRRFAYGRSDVEVLCFS [V19E],1.88
15,TFGDHHKDRRFAYGRSDVQVLCFS [V19Q],1.52
16,TFGDHHKDRRFAYGRSDVMVLCFS [V19M],2.17
17,TFGDHHKDRRFAYGRSDVHVLCFS [V19H],2
18,TFGDHHKDRRFAYGRSDVLVLCFS [V19L],2.82
19,TFGDHHKDRRFAYGRSDVTVLCFS [V19T],2.68
20,TFGDHHKDRRFAYGRSDVIVLCFS [V19I],2.14
21,TFGDHHKDRRFAYGRSDVSVLCFS [V19S],1.87
22,TFGDHHKDRRFAYGRSDVCVLCFS [V19C],1.26
23,TFGDHHKDRRFAYGRSDVPVLCFS [V19P],1.69
24,TFGDHHKDRRFAYGRSDVRVLCFS [V19R],1.89
25,TFGDHHKDRRFAYGRSDVNVLCFS [V19N],2.28

# Variants of: B2
# Assay: as above
# Settings: c terminus: a fixed tail appended
row,Variant,protein stability index
1,HVLRRLTSSVSCALDEAAAALTRM [E1H],2.67
2,MVLRRLTSSVSCALDEAAAALTRM [E1M],1.38
3,DVLRRLTSSVSCALDEAAAALTRM [E1D],1.97
4,QVLRRLTSSVSCALDEAAAALTRM [E1Q],3.07
5,KVLRRLTSSVSCALDEAAAALTRM [E1K],2.28
6,VVLRRLTSSVSCALDEAAAALTRM [E1V],2.42
7,RVLRRLTSSVSCALDEAAAALTRM [E1R],3.12
8,SVLRRLTSSVSCALDEAAAALTRM [E1S],2.2
9,PVLRRLTSSVSCALDEAAAALTRM [E1P],2.48
10,FVLRRLTSSVSCALDEAAAALTRM [E1F],1.73
11,TVLRRLTSSVSCALDEAAAALTRM [E1T],2.08
12,GVLRRLTSSVSCALDEAAAALTRM [E1G],2.73
13,AVLRRLTSSVSCALDEAAAALTRM [E1A],2.07
14,IVLRRLTSSVSCALDEAAAALTRM [E1I],1.89
15,YVLRRLTSSVSCALDEAAAALTRM [E1Y],2.22
16,CVLRRLTSSVSCALDEAAAALTRM [E1C],1.94
17,LVLRRLTSSVSCALDEAAAALTRM [E1L],1.8
